The text below walks through data of PMC5472179 (Nature Communications, 2017).

B1: eVP30_(110–272) (domain or fragment)
chain: GSVEQQLNITAPKDSRLANPTADDFQQEEGPKITLLTLIKTAEHWARQDIRTIEDSKLRALLTLCAVMTRKFSKSQLSLLCETHLRREGLGQDQAEPVLEVYQRLHSDKGGSFEAALWQQWDRQSLIMFITAFLNIALQLPCESSAVVVSGLRTLVPQSDNEE

The data set “SEC-MALS” deals with the molecule itself. Briefly: SEC-MALS.
The target of data set [1] is B1. Briefly: fluorescence polarisation. The conditions noted are these: both partners purified. On the technique in general: Fluorescence polarisation rises when a labelled molecule tumbles more slowly, as on binding a larger partner.
The target in data set [2] is B1. Nature of the data set: ITC. The conditions noted are these: both partners purified.
Data set [3] deals with B1. Nature of the data set: SEC-MALS. The conditions noted are these: both partners purified. (In general: SEC sorts molecules by how far they enter the pores of the column.)

Ends that are not written are not given here. * marks the point of attachment. FITC = O=C1OC2(c3ccc(O)cc3Oc3cc(O)ccc32)c2ccc(NC(=S)*)cc21

What is called stoichiometry N is the number of molecules, sites or subunits per partner or assembly. For the molecule B1, the “stoichiometry N” value in the data set “SEC-MALS” stood at 2.

Turning to RTPTVAPPAPVYRDHS [eVP30BP (unlabelled)], in the data set with eVP30_(110–272) [1], the binding result was “binds”.

For {FITC}-RTPTVAPPAPVYRDHS [FITC-eVP30BP], in the data set with eVP30_(110–272) [1], the binding result was “binds”.

B2: eNP_(600–739) (domain or fragment)
chain: RTPTVAPPAPVYRDHSEKKELPQDEQQDQDHTQEARNQDSDNTQSEHSFEEMYRHILRSQGPFDAVLYYHMMKDEPVVFSTSDGKEYTYPDSLEEEYPPWLTEKEAMNEENRFVTLDGQQFYWPVMNHKNKFMAILQHHQ
Usually Kd stands for a measure of binding affinity in units of concentration. A high value points to lower affinity. With B2, in the data set with eVP30_(110–272) [2], the affinity, expressed as Kd, was 3.75 µM and the “stoichiometry N” value was 0.8. Further, the “stoichiometry N” value with eVP30_(110–272) [3] was 1.
